For this data set, the system named is T1, C[C@H](NC(=O)CCC(=O)O)C(=O)N[C@@H](CCCCN)C(=O)N1CCC[C@H]1C(=O)N[C@@H](Cc1ccccc1)C(=O)Nc1ccc([N+](=O)[O-])cc1.
T1 construct: GST-His6 (PreScission site) (N, cleaved yes); made in house; host or cells: E. coli BL21 (DE3) T1r
Put plainly: Protease-coupled isomerase assay (PPIase assay) with the catalytic domain. Type of data set: biochemical, human. Conditions: other: as quoted in running text; pH 6.8; 10.0 °C. As to the method:
To determine the catalytic efficiency and substrate specificity of Par14 and Par17, we performed a protease‐coupled assay. In this assay, the trans form of a para‐nitroaniline (pNA) tagged model substrate is cleaved by chymotrypsin, and the resulting change in absorption at 390 nm due to free pNA is measured. When the model substrate is added to the protease‐containing buffer, all trans‐Xaa‐Pro isomers are immediately cleaved by chymotrypsin. Therefore, the extent of the first signal burst observed in the absorption spectrum correlates with the amount of trans isomers of the model substrate formed during the experimental dead time. […] The newly formed trans‐Xaa substrates are immediately cleaved, and isomerization can thus be monitored over time (Figure 2). Eighteen different substrate peptides with varying amino acids at the Xaa position (Suc‐Ala‐Xaa‐Pro‐Phe‐pNa) were measured to determine the isomerase activity and substrate selectivity of Par14 (Par17Δ1–25), Par17, and the catalytic domain (Par17Δ1–60) (Table S1). […]
We determined the isomerase activity using the PPIase assay described by. […] A baseline was recorded for 5 min (Cary 100Bio UV/Vis spectrophotometer, Varian/Agilent, Santa Clara, US, λ: 390 nm, bandwidth: 1.0 nm, average time between measurements: 0.5 s, temperature: 10°C). […] The solution was mixed by inverting the cuvette three times and the reaction was recorded for 15 min. […]

Drawing on publication PMC12314576, “The Actin‐Binding Prolyl‐Isomerase Par17 Sustains Its Substrate Selectivity by Interdomain Allostery” (Proteins, 2025), this text covers kcat/Km for one substance.

Chain of PPIase domain (Par17Δ1-60) (Homo sapiens) (chain, as listed by the source mutant): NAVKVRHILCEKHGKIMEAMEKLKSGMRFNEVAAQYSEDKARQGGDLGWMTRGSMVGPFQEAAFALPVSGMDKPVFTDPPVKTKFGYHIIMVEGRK

The term kcat/Km denotes the second-order rate constant that governs catalysis at low substrate concentration. With “PPIase domain (Par17Δ1-60) (Homo sapiens)”, the kcat/Km amounted to 3700 M⁻¹ s⁻¹.
